Assays:
[1] = target: T1, human CD47, endogenous cell surface form (human, UniProt Q08722 19-323); assay: cell-based or functional assay
T1 construct: Endogenous CD47 on human tumor cell lines; also called cell surface CD47; CD47 on Raji, CCRF-CEM and Daudi cells

[2] = target: T1, human CD47, endogenous cell surface form; assay: as described in Examples 2 and 3
From the text: Exemplary murine CD47 antibodies disclosed here are shown in FIG. 2, as disclosed in U.S. patent application Ser. No. 13/960,136 (Publication No. US20140140989).

| phagocytosis of tumor cells (CFSE-labeled CCRF-CEM) by monocyte derived macrophages [1] | binding result [2] | Binder |
| --- | --- | --- |
| 66.7 pM |  | CD47 antibody B6H12 (antibody, from another filing, V domains shown) VH: EVQLVESGGDLVKPGGSLKLSCAASGFTFSGYGMSWVRQTPDKRLEWVATITSGGTYTYYPDSVKGRFTISRDNAKNTLYLQIDSLKSEDTAIYFCARSLAGNAMDYWGQGTSVTVSS VL: DIVMTQSPATLSVTPGDRVSLSCRASQTISDYLHWYQQKSHESPRLLIKFASQSISGIPSRFSGSGSGSDFTLSINSVEPEDVGVYYCQNGHGFPRTFGGGTKLEIK |
|  | binds | murine 9E4 antibody (antibody, mouse IgG1, V domains shown) VH: EVQLRQSGPELVKPGASVKISCKASGYSFTDYYMYWVKQSRVRSLAWIGRINPYTGATGYDQNFKDKASLIVDKSSSTAYMELRSLTSEDSAVYYCARGRNRYDGWFAYWGQGTLVTV VL: EIQMTQTTSSLSASLGDRVTISCRASQDISNYLNWYQQKPDGTVKLLIYYTSRLHSGVPSRFSGSGSGTDYSLTISNLDQEDIATYFCQQGNALPPTFGGGTNLEIK |

Source: patent publication US20210371522A1 (CELGENE, published 2021)
